In the nanobody polyreactivity screen of Harvey et al. (2022):

Experiment: yeast display, Sf9 membrane polyspecificity reagent, FACS + sequencing; frameworks hold sequencing errors
In short: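 Nanobodies from a synthetic yeast display library (Saccharomyces cerevisiae BJ5465), induced 36–48 hours with galactose, were stained 1 hour at 4 °C with 10% biotinylated, detergent-solubilized Sf9 membrane reagent, enriched on streptavidin microbeads, then FACS-sorted. Anti-HA (expression) and streptavidin (reagent binding) fluorescence set low and high (top ~1%) gates. Polyreactivity labels come from the gate of origin. Genes were colony-PCR amplified, MiSeq 2 × 250 sequenced and filtered by CDR length.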

Sequence	polyreactivity (PSR sort gate)
QVQHVESGGGLVQAGGSLRLSCAASGSTFYGNTMGCYRQAPGKERELVAAISIRGTRTYYADSVKGRFTISRDNAKNTVYLQMNSLKPEDTAVYYCNAVTFPHNYDYWGQGTQVTVSS	high polyreactivity
QVQHVESGGGLVQAGGSLRLSCAASGSTFYRNTKGWYRQAPGKETELVAAISRSGGSTYYADSVKGRFTISRDNAKNTVYVQMNSLKPEDTAVYYCNADYTDYQTYSATTYEYWGQGTQVTVSS	low polyreactivity
QVQHVESGGGLVQAGGSLRLSCAASGSTIILNAMGWYRQAPGKERELVATISSSDTSTYYADSVKGRFTISRDNANNTVYLQMNSLKPEDTAVYYCNADYYTTSYLQRVIHYGVEYDYWGQGTQVTVSS	low polyreactivity
QVQHVESGGGLVQAGGSLRLSCAASGSTYTVYAMGRDRQAPGKERELVAAISGSGGRTYYADSVKGRFTISRDNAKNTVYLQMNILKPEDTGVYYCASQGNYWGQGTQVTVSS	high polyreactivity
QVQHVESGGGLVQAGGSLRLSCAASGTIFEGKGMGWYRQAPGKERELVAAITFRSGSTYYADSVKGRFTISRDNAKNTVYLQMNSLKPEDTAVYYCAADEYYQVSAYDYWGQGTQVTVSS	low polyreactivity
QVQHVESGGGLVQAGGSLRLSCAASGYTFIMYVMGWYRQAPGKERELVAAIDSNGTSTYADSVKGRFTISLDNAKNTVYFQMNSLKPEDTAVYYCAAGDIFRVFKEYDYWGQGTQVTVSS	low polyreactivity
QVQHVESGGGLVQAGGSLRLSCAASRSIFYYYAMGWYRQPPGKERELVAAISSDGTNYADSVKGRFTITRDNAKNTVYLQMNSLNPEDTAVYYCAKDHCTTSYDEGDYWGQGTQVTVSS	low polyreactivity
QVQHVESGGGLVQAGGSLRLSCAASRSTFYYYAMGWYRQAPGKERELVAAISRGGGSTYYADSVKGRFTISRDNAKNTVYLQMNSLKPEDTADDYCAARRVGGGFYTWRNPAYEYWGQGTQVTVSS	high polyreactivity
QVQHVESGGGLVQAGGSLRLSCAASVRTFIYYAMGWYRQAPGKERELVASITTGGRTYYADSVKGRFTISRDNAKNTVYLQMNSLKPEDTAVYYCNARWYRTGSTYHEDYWGQGTQVTVSS	high polyreactivity
QVQHVESGGGLVQAGGSLRLSCAASVRTLYYYAMGWSRQAPGKERELVAAISGGGRTYYADSVKGRFTISRDNAKNTVYLQMIILKPEDTAVYYCAARYRKSGLDNYWGQGTQVTVSS	high polyreactivity
QVQHVESGGGLVQAGGSLRLSCAASVSIFSPNDMGCYRQAPGKERELVAAITSAGSTYYADSVKGRFTISRDNAKNSVYLQMNSLKPEDTAVYYCAASYISVTDYAYFPLWYGYWGQGTQVTVSS	low polyreactivity
QVQHVESGGGLVQAGGSLRLSCASSGSTFRYNAMGWYRQAPVKERELVAAISSSGGSTYYADSVKGRFTISRDNAKNTVYLQMNSLKPEDPEVYYCAAPTRSRFKGYYYWGQGTQVTVSS	high polyreactivity
QVQHVESGGGLVQAGGSLRLSCSASGRTFNFYTMGWYRQAPGKEREFVAGITSTGGSTDYADSVKGRFTISRDNAKNTVYLQMNSLKPEDTAVYYCNALRRWWEPYWTYNYWGQGTQVTVSS	high polyreactivity
QVQHVESGGGLVQAGGSLRLSGAASGSTFQSYAMGWYRQAPGQERELVAAISTSDTDRTYYADSVKGRFTISRDNAKNTVYLQMNSLKPEDTAVYYCNADGYAHGDWYGYWGQGTQVTVSS	low polyreactivity
QVQHVESGGGLVQAGGSLRLSGAAYGRTFLYNAKGWNIQAPGKERELVAVISKRGGRTYYADSVKGRFTISRDNAKNTVYLQMKSLKPEDTAVYYCGAAYVTPPGPLRYNEYYWGQGSQVTVSS	high polyreactivity
QVQHVESGGGLVQAGGSLRLSIAASVFTFKGNAMGWYRQGPGKEMELVSTITQSGGSTYYADSVKGRFTISRDNAKNTVYLQMNSLKPEDTAVYFCNADPITLYYYSWYNYWGQGTQVTVSS	low polyreactivity

Sequence	polyreactivity (PSR sort gate)
QVQHVESGGGLVQAGGSLRLSSAASGRTFGIYAMGWSRQAPGKERELVATISWRGGSTYYADSLKGRFTISRDNSKNTVYLQMNSLKPEDTAVDYCAAGYYPYWGQGTQVTVSS	low polyreactivity
QVQHVESGGGLVQAGGSLRLTCAASGNTFWWNAMGWYRQAPGKERELVAAISWRGGSTYYADSVKGRFTISRDNAKNTVYLQMKCLKPEDTAVYYCAKRNYHDESVVEEDYWGQGTQVTVSS	low polyreactivity
QVQHVESGGGLVQAGGTLRLSCAASGSIFFWYGMGRYRQAPGKERELVAAITSGGISYYADSVKGRFTISRDNAKNTVYFQMNSLKPEDTAVYYCATRTYTYWGGSYPHYYWGQGSQVTVSS	high polyreactivity
QVQHVESGGGLVQAGLSLRLSCAASGRIFYGYAMGWYRQGPGQEREFVAAITSGGRTYYADSVKGRFTISRDNAKTTVYLQLNSLKPEDTAVYYCAAAQYYRYGYWGQGTQVTVSS	high polyreactivity
QVQHVESGGGLVQAGRSLPLSCAASGSIFWDNALGWYRQATGKEMVLVAAITSCGDTTYYADSVKGRFTISRDNSKNTVYLQMNSLKPEDTAVYYCATDSNWYWGFNYWGQGTQVTVSS	low polyreactivity
QVQHVESGGGLVQAGRSLRLICAASGRTFSRYALGWSRQAPGKERELVASIRSGGSTNYADSVKGRFTISRDNAKNTVYLQMNSLKPEDSAVYYCAKRGRLRNYDYWGQGTQVTVSS	high polyreactivity
QVQHVESGGGLVQAGRSLRLSCAATGYIFWKNAMGWYRQAPGKERELVAGITIRGGRTYYADSVKGRFTISRDNAKNTVYLQMNSLKPEDTAVYYCAAGTGVSRYRYVYWGQGTQVTVSS	high polyreactivity
QVQHVESGGGLVQAGVSLRLSCAASGFTFYNYAMGWYRQAPGKERELVAAITSSGTSTYYADSVKGRFTISRDNAKNTVYLQMNSLKPEDTAVYYCNAVSSYYYSYDYWGQGTQVTVSS	low polyreactivity
QVQHVESGGGLVQAGVSLRLSCAASGSTFRRYAMGWYRQSRGKERELVATISSRGGSTNYADSVKGRFTISRDNAKNTVYLQMNSLNPEDTSFYYCARSTSLVTKDDYWGQGTQVTVSS	high polyreactivity
QVQHVESGGGLVQARGSLRLSCAPSGFTFETNAMGWYRQAPGKEREFDAAISWTTTSTYFADSVKGRVTISRDNAKNTVYLQMNSLKPEDTAVYSCAVGLIREFGWDYDYWGQGTQVTVSS	low polyreactivity
QVQHVESGGGLVQAVGSLRLSCAASGRIVYYVMGWYRQAPGKERELVAAISTRGGSTYYADSVKGRFTISLDNAKNTVYLQMNSLTPEDTAVYYCAASSLLTRYNSWGQGTQVTVSS	high polyreactivity
QVQHVESGGGLVQAVGSLRLSSAASGSTIRYYAMGWYRQAPGKERELVASISSSGGSTFYADSVKGRFTISRDNAKNSVYLQMNSLKPEDTAVYYCARRYHYNMDYWGQGTQVTVSS	high polyreactivity
QVQHVESGGGLVQPGGSLRLSCAASGNAMGWYRQAPGKERELVASINRSGGRTYYADSVKGSYTISRDNAKNTVYLQMNSLKPEDTAVYYCAARPHYDSDYWGQGTQVTVSS	low polyreactivity
QVQHVESGGGLVQSGGSHRLSCAASGSTFSDNSLGWYRQAPAKERELVAAISRSGGSTYYADSVNGRFTISRDYAKNTVYLQMNSLIPEDTAVYYCATNRVLTGYDSWGQGTQVTVSS	high polyreactivity
QVQHVESGGGVVQAGGSLRLSCAASGIIFPRNALGWYRQAPGKERELVAAIRSSGGTTYYADSVKGRFTISRDNAKNTVYLQMNSLKPEDTAVFYCAAVTTSKFNYWGQGTQVTVSS	low polyreactivity
QVQHVESGGRLVQAGGSLRLSCAASGITFRVYALGWYRQPRGKERELVAAITSSGGSTYYADSVKGRFTISRDNAKNTVYLQMNSLKPEHTAVDYCAAFSAVDSPLDYWGQGTQVTVSS	low polyreactivity
